Test results from article doi:10.1101/2024.10.30.620795 (2024).

Assays:
Assay in all cases: activation reporter or marker
[1] = biological target: T1, A*02/YLQ peptide on A*02/YLQ (human)
T1 peptide: YLQPRTFLL

[2] = biological target: T2, A*01/LTD peptide on A*01/LTD (human)
T2 peptide: LTDEMIAQY

[3] = biological target: T3, A*24/QYI peptide on A*24/QYI (human)
T3 peptide: QYIKWPWYI

B1: 9973 (TCR)
alpha TRAV39 TRAJ54 CDR3: CAVDSSFQGAQKLVF
beta TRBV6-2 TRBJ2-7 CDR3: CASSLPDSYEQYF
- binding result [1]: no recognition

B2: 99 (TCR)
alpha TRAV5 TRAJ24 CDR3: CAERRGKLQF
beta TRBV15 TRBJ2-5 CDR3: CATSRGPGGSKAGETQYF
- binding result [2]: recognises

B3: 1690 (TCR)
alpha TRAV8-4 TRAJ10 CDR3: CAVSDLRVLTGGGNKLTF
beta TRBV7-9 TRBJ2-1 CDR3: CASSLALAGRNYNEQFF
- binding result [2]: no recognition

B4: 96 (TCR)
alpha TRAV38-1 TRAJ57 CDR3: CAFSPGGSEKLVF
beta TRBV5-1 TRBJ2-7 CDR3: CASSLGRFLRGDWDYEQYF
- binding result [3]: no recognition

B5: 6688 (TCR)
alpha TRAV12-1 TRAJ36 CDR3: CVVNKEDNLFF
beta TRBV9 TRBJ2-2 CDR3: CASSGGIETSGNTGELFF
- binding result [1]: recognises

B6: 3695 (TCR)
alpha TRAV12-1 TRAJ20 CDR3: CVVNWYDYKLSF
beta TRBV30 TRBJ2-2 CDR3: CAWINDQNTGELFF
- binding result [1]: recognises

B7: 7411 (TCR)
alpha TRAV12-1 TRAJ45 CDR3: CVVNRADGLTF
beta TRBV12-3 TRBJ2-2 CDR3: CASTDGNTGELFF
- binding result [1]: recognises

B8: 84 (TCR)
alpha TRAV8-3 TRAJ24 CDR3: CAVGLTDSWGKLQF
beta TRBV5-8 TRBJ2-1 CDR3: CASSLAIRGIIDNEQFF
- binding result [3]: no recognition

B9: 10749 (TCR)
alpha TRAV12-1 TRAJ20 CDR3: CVVNKEDKLSF
beta TRBV20-1 TRBJ2-2 CDR3: CSARDLLAANTGELFF
- binding result [1]: recognises

B10: 5766 (TCR)
alpha TRAV12-1 TRAJ43 CDR3: CVVNMYDDMRF
beta TRBV5-1 TRBJ2-2 CDR3: CASIDSNTGELFF
- binding result [1]: recognises

B11: 9825 (TCR)
alpha TRAV12-1 TRAJ43 CDR3: CVVNELDDMRF
beta TRBV5-1 TRBJ2-2 CDR3: CASAGPNTGELFF
- binding result [1]: recognises

B12: 6579 (TCR)
alpha TRAV12-1 TRAJ10 CDR3: CVVNSPEGGGNKLTF
beta TRBV7-2 TRBJ1-1 CDR3: CASSSLNSLEAFF
- binding result [1]: recognises
